Blank lines part the entries; values can stand above or below the binder they belong to.
How the values were obtained:
[1] = biological target: T1, O9; experiment: two-hybrid library CC0; conditions: mean of both orientations;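 further: natural log of median RNA to DNA barcode read ratio; higher means stronger binding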
T1 chain: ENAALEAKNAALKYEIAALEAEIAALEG

[2] = biological target: T2, 4H477-bH; experiment: two-hybrid library CCNG1;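 further: natural log of median RNA to DNA barcode read ratio; higher means stronger binding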
T2 chain: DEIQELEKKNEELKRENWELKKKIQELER

[3] = biological target: T3, 4H741-bH; experiment: two-hybrid library CCNG1;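 further: natural log of median RNA to DNA barcode read ratio; higher means stronger binding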
T3 chain: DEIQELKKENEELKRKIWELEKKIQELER

[4] = biological target: T4, 4H40-bH; experiment: two-hybrid library CCNG1;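 further: natural log of median RNA to DNA barcode read ratio; higher means stronger binding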
T4 chain: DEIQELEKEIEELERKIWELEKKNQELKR

[5] = biological target: T5, 4H348-bH; experiment: two-hybrid library CCNG1
T5 chain: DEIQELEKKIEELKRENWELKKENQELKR

[6] = biological target: T6, 4H492-bH; experiment: two-hybrid library CCNG1
T6 chain: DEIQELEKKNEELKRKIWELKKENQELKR

[7] = biological target: T7, 4H754-bH; experiment: two-hybrid library CCNG1
T7 chain: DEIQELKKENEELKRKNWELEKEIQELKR

[8] = biological target: T8, 4H883-bH; experiment: two-hybrid library CCNG1
T8 chain: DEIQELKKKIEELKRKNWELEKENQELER

[9] = biological target: T9, 4H338-bH; experiment: two-hybrid library CCNG1
T9 chain: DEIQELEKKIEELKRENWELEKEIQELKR

[10] = biological target: T10, 4H908-bH; experiment: two-hybrid library CCNG1
T10 chain: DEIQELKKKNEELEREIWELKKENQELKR

[11] = biological target: T11, 4H3782-bH; experiment: two-hybrid library CCNG1
T11 chain: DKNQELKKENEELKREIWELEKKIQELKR

[12] = biological target: T12, 4H607-bH; experiment: two-hybrid library CCNG1
T12 chain: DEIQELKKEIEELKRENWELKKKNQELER

[13] = biological target: T13, 4H3926-bA; experiment: two-hybrid library CCNG1
T13 chain: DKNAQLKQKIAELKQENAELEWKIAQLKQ

[14] = biological target: T14, 4H953-bH; experiment: two-hybrid library CCNG1
T14 chain: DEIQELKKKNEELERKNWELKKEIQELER

[15] = biological target: T15, 4H454-bH; experiment: two-hybrid library CCNG1
T15 chain: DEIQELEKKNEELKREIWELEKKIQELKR

[16] = biological target: T16, 4H918-bH; experiment: two-hybrid library CCNG1
T16 chain: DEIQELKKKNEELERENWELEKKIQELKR

[17] = biological target: T17, 4H687-bH; experiment: two-hybrid library CCNG1
T17 chain: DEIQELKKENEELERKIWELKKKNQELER

[18] = biological target: T18, 4H568-bH; experiment: two-hybrid library CCNG1
T18 chain: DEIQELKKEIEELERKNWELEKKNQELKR

[19] = biological target: T19, 4H4001-bH; experiment: two-hybrid library CCNG1
T19 chain: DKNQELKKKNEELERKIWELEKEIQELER

[20] = biological target: T20, 4H967-bH; experiment: two-hybrid library CCNG1
T20 chain: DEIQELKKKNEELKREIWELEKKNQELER

[21] = biological target: T21, 4H717-bH; experiment: two-hybrid library CCNG1
T21 chain: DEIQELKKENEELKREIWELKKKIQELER

[22] = biological target: T22, 4H3427-bH; experiment: two-hybrid library CCNG1
T22 chain: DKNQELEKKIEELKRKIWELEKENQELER

[23] = biological target: T23, 4H72-bH; experiment: two-hybrid library CCNG1
T23 chain: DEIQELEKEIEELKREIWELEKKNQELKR

[24] = biological target: T24, 4H3855-bH; experiment: two-hybrid library CCNG1
T24 chain: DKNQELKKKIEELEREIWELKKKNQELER

[25] = biological target: T25, 4H797-bH; experiment: two-hybrid library CCNG1
T25 chain: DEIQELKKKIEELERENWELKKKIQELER

[26] = biological target: T26, 4H2931-AA; experiment: two-hybrid library CCmax; conditions: mean of both orientations
T26 chain: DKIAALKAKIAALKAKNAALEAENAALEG

[27] = biological target: T27, 4H56-AA; experiment: two-hybrid library CCmax; conditions: mean of both orientations
T27 chain: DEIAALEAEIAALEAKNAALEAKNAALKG

[28] = biological target: T28, 4H_APH; experiment: two-hybrid library CCmax; conditions: mean of both orientations
T28 chain: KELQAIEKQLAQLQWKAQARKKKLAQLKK

[29] = biological target: T29, 4H3438-AA; experiment: two-hybrid library CCmax; conditions: mean of both orientations
T29 chain: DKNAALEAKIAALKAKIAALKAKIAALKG

[30] = biological target: T30, 4H2732-AA; experiment: two-hybrid library CCmax
T30 chain: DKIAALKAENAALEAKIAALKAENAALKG

[31] = biological target: T31, 4H347-AA; experiment: two-hybrid library CCmax; conditions: mean of both orientations
T31 chain: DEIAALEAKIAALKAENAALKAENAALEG

[32] = biological target: T32, 4H406-AA; experiment: two-hybrid library CCmax; conditions: mean of both orientations
T32 chain: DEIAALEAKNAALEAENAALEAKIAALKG

[33] = biological target: T33, 4H3001-AA; experiment: two-hybrid library CCmax; conditions: mean of both orientations
T33 chain: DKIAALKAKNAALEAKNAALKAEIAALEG

[34] = biological target: T34, 4H_BCR; experiment: two-hybrid library CCmax; conditions: mean of both orientations
T34 chain: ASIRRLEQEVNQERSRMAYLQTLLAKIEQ

[35] = biological target: T35, 4H2774-AA; experiment: two-hybrid library CCmax; conditions: mean of both orientations
T35 chain: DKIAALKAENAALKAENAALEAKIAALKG

[36] = biological target: 4H_GCN4; experiment: two-hybrid library CCmax; conditions: mean of both orientations
[37] = biological target: GCN2_T; experiment: two-hybrid library CCmax
[38] = biological target: T36, 4H3015-AA; experiment: two-hybrid library CCmax; conditions: mean of both orientations
T36 chain: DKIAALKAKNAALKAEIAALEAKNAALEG

[39] = biological target: T37, 4H452-AA; experiment: two-hybrid library CCmax; conditions: mean of both orientations
T37 chain: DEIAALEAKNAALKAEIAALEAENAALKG

[40] = biological target: T38, 4H3073-AA; experiment: two-hybrid library CCmax; conditions: mean of both orientations
T38 chain: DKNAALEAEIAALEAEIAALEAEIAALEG

[41] = biological target: T39, O9; experiment: two-hybrid library CCNG1
T39 chain: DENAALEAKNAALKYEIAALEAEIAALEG

[42] = biological target: T40, O8; experiment: two-hybrid library CCNG1
T40 chain: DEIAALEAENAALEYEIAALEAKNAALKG

4H_GCN4, sequence (chain, as listed by the source): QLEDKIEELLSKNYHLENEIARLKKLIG

B1: O9 (peptide)
chain: ENAALEAKNAALKYEIAALEAEIAALEG
interaction score [1]: -2.72

B4: 4H2732-AA (peptide)
chain: DKIAALKAENAALEAKIAALKAENAALKG
interaction score [26]: -1.81 | interaction score [27]: -1.58 | interaction score [28]: -1.5 | interaction score [29]: -1.2 | interaction score [30]: 0.324 | interaction score [31]: -1.49 | interaction score [32]: -1.22 | interaction score [33]: -1.46 | interaction score [34]: -2.17 | interaction score [35]: -1.29 | interaction score [36]: -1.08 | interaction score [37]: -1.15 | interaction score [38]: 1.14 | interaction score [39]: 2.3 | interaction score [40]: 0.0758

B5: O8 (peptide)
chain: DEIAALEAENAALEYEIAALEAKNAALKG
interaction score [41]: -1.9 | interaction score [42]: -2.07

Now from value to binder:

interaction score [2]: 0.107 | interaction score [3]: 1.04 | interaction score [4]: -0.14 | interaction score [5]: 0.666 | interaction score [6]: -0.683
B2: 4H348-bH (peptide)
chain: DEIQELEKKIEELKRENWELKKENQELKR

interaction score [7]: 0.366 | interaction score [8]: 0.0489 | interaction score [9]: 1.76 | interaction score [10]: -3.02 | interaction score [11]: -0.321 | interaction score [12]: 0.393 | interaction score [13]: 1.81 | interaction score [14]: 1.25 | interaction score [15]: 1.38 | interaction score [16]: -0.137 | interaction score [17]: -0.366 | interaction score [18]: 0.785 | interaction score [19]: 0.346 | interaction score [20]: 0.908 | interaction score [21]: 0.186 | interaction score [22]: 0.373 | interaction score [23]: -1.44 | interaction score [24]: 0.141 | interaction score [25]: -0.318
B3: 4H338-bH (peptide)
chain: DEIQELEKKIEELKRENWELEKEIQELKR
